Assay results from PMC10355216, “The C-terminal tail of CSNAP attenuates the CSN complex” (Life Science Alliance, 2023).

Legend:
Assay in all cases: peptide or protein array; peptides synthesized on a microarray, incubated with recombinant CSN, probed with anti-CSN3 and HRP-conjugated secondary antibody; spot intensity normalized to C-CSNAP (A1), averaged from six arrays
[1] = target: C-CSNAP peptide with a D-amino acid at Leu50 (peptide array)
[2] = target: C-CSNAP peptide with a D-amino acid at Asp54 (peptide array)
[3] = target: C-CSNAP peptide with a D-amino acid at Asp53 (peptide array)
[4] = target: C-CSNAP peptide with a D-amino acid at Asp52 (peptide array)
[5] = target: C-CSNAP peptide with a D-amino acid at Phe51 (peptide array)
[6] = target: C-CSNAP peptide with a D-amino acid at Asp55 (peptide array)

Measured: increase of the array signal over the original 16AA C-CSNAP peptide

recombinant COP9 signalosome complex (CSN) (from UniProt Q13098 1-491; Q9UNS2 1-423; Q92905 1-334; Q99627 2-209; Q8WXC6 1-57)
> 20%: all assays above
